Source: IntAct's records for PubMed 19855379

B1: Protein phosphatase 2C 56 (Arabidopsis thaliana (Mouse-ear cress)), P49597 (parent)
chain: MEEVSPAIAGPFRPFSETQMDFTGIRLGKGYCNNQYSNQDSENGDLMVSLPETSSCSVSGSHGSESRKVLISRINSPNLNMKESAAADIVVVDISAGDEINGSDITSEKKMISRTESRSLFEFKSVPLYGFTSICGRRPEMEDAVSTIPRFLQSSSGSMLDGRFDPQSAAHFFGVYDGHGGSQVANYCRERMHLALAEEIAKEKPMLCDGDTWLEKWKKALFNSFLRVDSEIESVAPETVGSTSVVAVVFPSHIFVANCGDSRAVLCRGKTALPLSVDHKPDREDEAARIEAAGGKVIQWNGARVFGVLAMSRSIGDRYLKPSIIPDPEVTAVKRVKEDDCLILASDGVWDVMTDEEACEMARKRILLWHKKNAVAGDASLLADERRKEGKDPAAMSAAEYLSKLAIQRGSKDNISVVVVDLKPRRKLKSKPLN
B2: Abscisic acid receptor PYL1 (Arabidopsis thaliana (Mouse-ear cress)), Q8VZS8 (parent)
chain: MANSESSSSPVNEEENSQRISTLHHQTMPSDLTQDEFTQLSQSIAEFHTYQLGNGRCSSLLAQRIHAPPETVWSVVRRFDRPQIYKHFIKSCNVSEDFEMRVGCTRDVNVISGLPANTSRERLDLLDDDRRVTGFSITGGEHRLRNYKSVTTVHRFEKEEEEERIWTVVLESYVVDVPEGNSEEDTRLFADTVIRLNLQKLASITEAMNRNNNNNNSSQVR

Variants of: B1
Conditions: with pyl1_arath PYL1, Q8VZS8

Variant | effect of a mutation on the interaction
E142A | decreasing interaction
I298A | disrupting interaction
R304A | disrupting interaction
Y319A | decreasing interaction
W300A | disrupting interaction

Variants of: B2
Conditions: with ABI1, P49597

Variant | effect of a mutation on the interaction
L144A | disrupting interaction
R143A | decreasing interaction
H142A | disrupting interaction
F189A | decreasing interaction
